Data: patent US20130184211A1 (NEW YORK UNIVERSITY, published 2013)

Molecular target: T1, 1:1 binary complex of the ectodomains of FGFR1c and Klotho (human; murine, UniProt O35082 35-982)
T1 construct: range 35-982; also called FGFR1c-Klotho complex; binary FGFR1c-Klotho complex; not shown: C-terminal FLAG tag
T1 sequence 1: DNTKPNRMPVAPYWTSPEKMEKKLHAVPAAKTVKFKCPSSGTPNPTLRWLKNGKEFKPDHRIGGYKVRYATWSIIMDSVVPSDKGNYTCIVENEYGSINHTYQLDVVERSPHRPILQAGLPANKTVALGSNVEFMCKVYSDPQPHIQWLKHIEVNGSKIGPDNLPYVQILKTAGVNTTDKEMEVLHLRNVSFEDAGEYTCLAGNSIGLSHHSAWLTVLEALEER
T1 sequence 2: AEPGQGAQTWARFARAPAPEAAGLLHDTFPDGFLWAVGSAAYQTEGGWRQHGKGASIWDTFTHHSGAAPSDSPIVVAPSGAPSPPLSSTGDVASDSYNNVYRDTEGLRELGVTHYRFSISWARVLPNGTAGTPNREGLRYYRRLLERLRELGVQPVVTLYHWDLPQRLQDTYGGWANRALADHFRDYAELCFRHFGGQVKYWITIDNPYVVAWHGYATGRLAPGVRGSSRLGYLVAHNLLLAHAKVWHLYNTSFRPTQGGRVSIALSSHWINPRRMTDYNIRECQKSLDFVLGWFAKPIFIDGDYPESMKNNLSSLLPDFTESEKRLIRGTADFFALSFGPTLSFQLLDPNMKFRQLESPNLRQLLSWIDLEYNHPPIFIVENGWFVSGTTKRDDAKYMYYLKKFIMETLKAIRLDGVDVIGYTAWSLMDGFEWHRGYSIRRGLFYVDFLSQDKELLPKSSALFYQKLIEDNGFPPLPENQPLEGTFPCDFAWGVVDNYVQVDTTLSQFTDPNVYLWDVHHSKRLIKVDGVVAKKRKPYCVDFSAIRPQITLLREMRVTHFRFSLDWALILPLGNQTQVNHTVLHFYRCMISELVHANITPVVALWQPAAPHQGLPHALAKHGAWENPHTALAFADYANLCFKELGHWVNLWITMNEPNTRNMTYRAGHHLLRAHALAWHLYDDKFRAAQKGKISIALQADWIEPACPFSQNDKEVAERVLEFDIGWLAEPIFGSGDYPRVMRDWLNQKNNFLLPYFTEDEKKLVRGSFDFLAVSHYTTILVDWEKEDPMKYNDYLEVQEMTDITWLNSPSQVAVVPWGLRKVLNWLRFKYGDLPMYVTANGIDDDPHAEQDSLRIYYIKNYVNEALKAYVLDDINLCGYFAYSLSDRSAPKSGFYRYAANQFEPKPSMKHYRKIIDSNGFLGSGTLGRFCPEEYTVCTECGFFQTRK
Assay: SPR competition dose-response: FGF23^180-205 mixed with a fixed concentration of FGFR1c-Klotho, immobilized FGF23^28-251 as competitor; averaged data of two to three experiments
Text: To analyze FGF23 binding to the binary FGFR1c-Klotho complex, FGF23²⁸⁻²⁵¹ was coupled to a chip, and increasing concentrations of 1:1 complex of the ectodomains of FGFR1c and Klotho in HBS-EP buffer were passed over the chip. To measure binding of the C-terminal tail of FGF23 to the binary FGFR1c-Klotho complex, FGF23¹⁸⁰⁻²⁵¹ was immobilized on a chip, and increasing concentrations of 1:1 complex of the ectodomains of FGFR1c and Klotho in HBS-EP buffer were passed over the chip. To examine whether the C-terminal tail of FGF23 can compete with full-length FGF23 for binding to the binary FGFR1c-Klotho complex, FGF23²⁸⁻²⁵¹ was immobilized on a chip. Increasing concentrations of FGF23¹⁸⁰⁻²⁵¹ were mixed with a fixed concentration of 1:1 complex of the ectodomains of FGFR1c and Klotho in HBS-EP buffer, and the mixtures were passed over the chip. As a control, competition of FGF23 in solution with immobilized FGF23 for binding to the binary FGFR1c-Klotho complex was studied. Increasing concentrations of FGF23²⁸⁻²⁵¹ were mixed with a fixed concentration of 1:1 complex of the ectodomains of FGFR1c and Klotho in HBS-EP buffer, and the mixtures were passed over the FGF23 chip. […] As a control, competition of FGF23 C-terminal tail peptide in solution with immobilized FGF23 C-terminal tail peptide for binding to the binary FGFR1c-Klotho complex was analyzed. […]

B1: FGF23 C-terminal region peptide (S180 to S205), FGF23^180-205 (peptide)
peptide: SAEDDSERDPLNVLKPRARMTPAPAS
notes: Made by solid phase synthesis (GenScript)
IC50 (read off the curve): ~100 nM
